The source of these data is the supplement of paper PMC10567573.

The labels stand for the following.
B1: KIAA1161 (parent)
chain: FMPAMQFSIPPWRYDAEVVAIAQK
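Also: lentivirally expressed fusions sorted by FACS into six bins by GFP to DsRed ratio, PSI derived from sequencing read proportions per bin multiplied by bin number.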

The variants in the data set derive from B1. The experiment in a line: protein stability index of a GFP-peptide fusion (GPS, HEK-293T) (PSI 1-6); higher = more stable. The note with it: c terminus: a fixed tail appended.
With FMPAMQFSIPEWRYDAEVVAIAQK [P11E], the protein stability index amounted to 1.64.

Regarding FMPAMQFSIPCWRYDAEVVAIAQK [P11C], the protein stability index was 1.79.

As for FMPAMQFSIPDWRYDAEVVAIAQK [P11D], the protein stability index worked out at 2.37.

FMPAMQFSIPPWRYTAEVVAIAQK [D15T]: the protein stability index turned out to be 2.69.

For FMPAMQFSIPPWRYLAEVVAIAQK [D15L], the protein stability index is 1.5.

Consider FMPAMQFSIPPWRYWAEVVAIAQK [D15W], for which the protein stability index came to 1.19.

For FMPAMQFSIPPWRYSAEVVAIAQK [D15S], the protein stability index stood at 1.24.

Regarding FMPAMQFSIPPWRYKAEVVAIAQK [D15K], the protein stability index turned out to be 1.25.

Consider FMPAMQFSIPPWRYGAEVVAIAQK [D15G], for which the protein stability index is 1.75.

Regarding FMPAMQFSIPPWRYRAEVVAIAQK [D15R], the protein stability index worked out at 1.95.

Take FMPAMQFSIPPWRPDAEVVAIAQK [Y14P]: the protein stability index amounted to 1.79.

On to FMPAMQFSIPPWRHDAEVVAIAQK [Y14H], for which the protein stability index came to 2.52.

Turning to FMPAMQFSIPPWRKDAEVVAIAQK [Y14K], the protein stability index worked out at 2.08.

Turning to FMPAMQFSIPPWRGDAEVVAIAQK [Y14G], the protein stability index turned out to be 1.93.

Regarding FMPAMQFSIPPWRNDAEVVAIAQK [Y14N], the protein stability index turned out to be 2.37.

For FMPAMQFSIPPWRIDAEVVAIAQK [Y14I], the protein stability index was 1.05.

FMPAMQFSIPPWRQDAEVVAIAQK [Y14Q]: the protein stability index came out at 2.57.

In the case of FMPAMQFSIPPWRSDAEVVAIAQK [Y14S], the protein stability index was found to be 2.13.

As for FMPAMQFSIPPWRTDAEVVAIAQK [Y14T], the protein stability index worked out at 2.82.

Take FMPAMQFSIPPWRADAEVVAIAQK [Y14A]: the protein stability index worked out at 2.2.

With FMPPMQFSIPPWRYDAEVVAIAQK [A4P], the protein stability index came out at 2.29.

For the variant FMPLMQFSIPPWRYDAEVVAIAQK [A4L], the protein stability index turned out to be 2.09.

Regarding FMPEMQFSIPPWRYDAEVVAIAQK [A4E], the protein stability index amounted to 2.34.

For the variant FMAAMQFSIPPWRYDAEVVAIAQK [P3A], the protein stability index was 2.35.

Consider FMFAMQFSIPPWRYDAEVVAIAQK [P3F], for which the protein stability index turned out to be 1.73.

With FMMAMQFSIPPWRYDAEVVAIAQK [P3M], the protein stability index is 4.

For the variant FMKAMQFSIPPWRYDAEVVAIAQK [P3K], the protein stability index turned out to be 2.58.

Take FMCAMQFSIPPWRYDAEVVAIAQK [P3C]: the protein stability index was determined as 2.02.

As to FMPAMQFSIPPWRYDAEQVAIAQK [V18Q], the protein stability index came to 2.81.

Take FMPAMQFSIPPWRYDAEYVAIAQK [V18Y]: the protein stability index worked out at 2.03.

For the variant FMPAMQFSIPPWRYDAEHVAIAQK [V18H], the protein stability index came to 2.93.

On to FMPAMQFSIPPWRYDAERVAIAQK [V18R], for which the protein stability index was determined as 3.34.

Consider FMPAMQFSIPPWRYDAEKVAIAQK [V18K], for which the protein stability index was 2.33.

With FMPAMQFSIPPWRYDAEGVAIAQK [V18G], the protein stability index was determined as 2.6.

As to FMPAMQFSIPPWRYDAENVAIAQK [V18N], the protein stability index came to 2.23.

Turning to FMPAMQFSIPPWRYDAEPVAIAQK [V18P], the protein stability index was 2.96.

As to FMPAMQFSIPPWRYDAESVAIAQK [V18S], the protein stability index was 2.05.

Regarding FMPAMQFSIPPWRYDAEFVAIAQK [V18F], the protein stability index turned out to be 1.62.

As for FMPAMQFSIPPWRYDAEEVAIAQK [V18E], the protein stability index is 2.63.

On to FMPAMQFSIPPWRYDAEAVAIAQK [V18A], for which the protein stability index came to 2.17.

FMPAMQFSIPPRRYDAEVVAIAQK [W12R]: the protein stability index was 2.39.

With FMPAMQFSIPPDRYDAEVVAIAQK [W12D], the protein stability index was determined as 2.55.

For FMPAMQFSIPPIRYDAEVVAIAQK [W12I], the protein stability index worked out at 2.18.

In the case of FMPAMQFSIPPERYDAEVVAIAQK [W12E], the protein stability index is 2.08.

On to FMPAMQFSIPPNRYDAEVVAIAQK [W12N], for which the protein stability index came out at 2.49.

For the variant FMPAMQFSIPPQRYDAEVVAIAQK [W12Q], the protein stability index was found to be 2.3.

Regarding FMPAMQFSIPPKRYDAEVVAIAQK [W12K], the protein stability index stood at 2.17.

On to FMPAMQFSIPPHRYDAEVVAIAQK [W12H], for which the protein stability index came to 2.53.

FMPAMQFSIPPCRYDAEVVAIAQK [W12C]: the protein stability index was 1.73.

Consider FMPAMQFSIPPWRYDAEVTAIAQK [V19T], for which the protein stability index was found to be 2.21.

On to FMPAMQFSIPPWRYDAEVYAIAQK [V19Y], for which the protein stability index came out at 3.33.

Take FMPAMQFSIPPWRYDAEVCAIAQK [V19C]: the protein stability index stood at 2.39.

As to FMPAMQFSIPPWRYDAEVQAIAQK [V19Q], the protein stability index is 2.5.

As for FMPAMQFSIPPWRYDAEVGAIAQK [V19G], the protein stability index came to 2.2.

As to FMPAMQFSIPPWRYDAEVNAIAQK [V19N], the protein stability index was 3.31.

In the case of FMPAMQFSIPPWRYDAEVRAIAQK [V19R], the protein stability index was 2.83.

For the variant FMPAMQFSIPPWRYDAEVIAIAQK [V19I], the protein stability index came out at 1.46.

Regarding FSPAMQFSIPPWRYDAEVVAIAQK [M2S], the protein stability index is 1.46.

Regarding FHPAMQFSIPPWRYDAEVVAIAQK [M2H], the protein stability index came to 1.74.

With FKPAMQFSIPPWRYDAEVVAIAQK [M2K], the protein stability index turned out to be 2.38.

As to FEPAMQFSIPPWRYDAEVVAIAQK [M2E], the protein stability index is 2.83.

Take FQPAMQFSIPPWRYDAEVVAIAQK [M2Q]: the protein stability index amounted to 2.71.

In the case of FRPAMQFSIPPWRYDAEVVAIAQK [M2R], the protein stability index stood at 2.45.

Consider FAPAMQFSIPPWRYDAEVVAIAQK [M2A], for which the protein stability index worked out at 2.47.

For the variant FLPAMQFSIPPWRYDAEVVAIAQK [M2L], the protein stability index came to 1.46.

FMPAMQFSIPPWRYDAEVVAIAQH [K24H]: the protein stability index turned out to be 2.54.

With FMPAMQFSIPPWRYDAEVVAIAQS [K24S], the protein stability index was 1.68.

Turning to FMPAMQFSIPPWRYDAEVVAIAQQ [K24Q], the protein stability index amounted to 1.86.

FMPAMQFSIPPWRYDAEVVAIAQF [K24F]: the protein stability index came out at 2.

Turning to FMPAMQFSIPPWRYDAEVVAIAQL [K24L], the protein stability index was found to be 2.62.

For FMPAMQFSIPPWRYDAEVVAIAQG [K24G], the protein stability index amounted to 1.33.

FMPAMQFSIPPWRYDAEVVAIAQR [K24R]: the protein stability index was found to be 1.67.

Take FMPAMQFSIPPWRYDAEVVAIAQD [K24D]: the protein stability index stood at 1.82.

On to FMPAMQFSIPPWRYDAEVVAIAQA [K24A], for which the protein stability index stood at 2.31.

Regarding FMPAMQFSIPPWRYDAEVVAIADK [Q23D], the protein stability index came out at 2.69.

In the case of FMPAMQFSIPPWRYDAEVVAIATK [Q23T], the protein stability index came to 1.92.

Take FMPAMQFSIPPWRYDAEVVAIAYK [Q23Y]: the protein stability index stood at 1.3.

For the variant FMPAMQFSIPPWRYDAEVVAIAGK [Q23G], the protein stability index worked out at 1.78.

Turning to FMPAMQQSIPPWRYDAEVVAIAQK [F7Q], the protein stability index stood at 2.89.

For the variant FMPAMQKSIPPWRYDAEVVAIAQK [F7K], the protein stability index came to 1.7.

Regarding FMPAMQASIPPWRYDAEVVAIAQK [F7A], the protein stability index turned out to be 1.97.

On to FMPAMQISIPPWRYDAEVVAIAQK [F7I], for which the protein stability index came to 2.9.

With FMPAMQCSIPPWRYDAEVVAIAQK [F7C], the protein stability index was 2.61.

Turning to FMPAMQMSIPPWRYDAEVVAIAQK [F7M], the protein stability index worked out at 1.91.

On to FMPAMQGSIPPWRYDAEVVAIAQK [F7G], for which the protein stability index was 1.61.

Turning to FMPAMQESIPPWRYDAEVVAIAQK [F7E], the protein stability index stood at 2.34.

FMPAMQFSIPPWRYDAEVVAILQK [A22L]: the protein stability index is 2.45.

In the case of FMPAMQFSIPPWRYDAEVVAIVQK [A22V], the protein stability index came to 2.01.

For the variant FMPAMQFSIPPWRYDAEVVAIFQK [A22F], the protein stability index came out at 2.18.

With FMPAMQFSIPPWRYDAEVVAIHQK [A22H], the protein stability index came to 1.9.

FMPAMQFSIPPWRYDAEVVAIPQK [A22P]: the protein stability index turned out to be 2.58.

For the variant FMPAMQFSIPPWRYDAEVVAIKQK [A22K], the protein stability index is 1.88.

As to FMPAMQFSIPPWRYDAEVVAINQK [A22N], the protein stability index turned out to be 1.6.

For the variant FMPAMQFSIPPWRYDAEVVAIYQK [A22Y], the protein stability index was 1.23.
